These results are taken from US20230212319A1, “NOVEL ANTIGEN BINDING DOMAINS AND SYNTHETIC ANTIGEN RECEPTORS INCORPORATING THE SAME” (University of Southern California, priority 2020, published 2023).

What all share (type): cell-based
Assay [1] relates to L363 cells. Nature of the assay: JNG assay, co-culture with L363 cells. As to conditions: co-culture with L363. In short, it runs like this: (§1)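 Jurkat-NFAT-GFP (JNG) cells stably expressing SAR constructs via lentiviral transduction and puromycin/blasticidin selection were cocultured with target cells at E:T ~1:2 for ~4–18 h. NFAT-driven GFP was measured by FACS versus parental JNG cells; scores +/- to 5+ denote ~5–50% GFP-positive cells.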

For assay [2], the system named is Nalm6 cells. Nature of the assay: JNG assay, co-culture with Nalm6 cells. The following applies: co-culture with Nalm6. Put shortly: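 Scoring uses % GFP+ reporter cells above the parental control, where +/-, +, 2+, 3+, 4+ and 5+ correspond to about 5, 10, 20, 30, 40 and 50%. Effectors were SAR-expressing Jurkat NFAT-GFP cells cocultured with targets (E:T ~1:2, ~4–18 h).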

Assay [3] relates to RAJI cells. Nature of the assay: JNG assay, co-culture with RAJI cells. As to conditions: JNG cells expressing construct, co-culture with Raji. In short, it runs like this:
as §1

B1: 22154 (protein)
chain: MALPVTALLLPLALLLHAARPACEVQLLESGGGLIQPGGSLRLSCAASGFTFSSHAMTWVRQAPGKGLEWVSAISGSGDYTHYADSVKGRFTISRDNSKNTVYLQMNSLRAEDSAVYYCAKDEDGGSLLGHRGQGTLVTVSSGTGGGGSGGGGSGGGGSEFSYVLTQPPSVSVAPGQTARITCGGNNIGGKSVHWYQQPPGQAPVVVVYDDSDRPSGIPERFSGSNSGNTATLTISRVEAGDEAVYYCQVWDSSSDHVVFGGGTKLTVLLEGQPKANPTVTLFPPSSEELQANKATLVCLISDFYPGAVTVAWKADGSPVKAGVETTKPSKQSNNKYAASSYLSLTPEQWKSHRSYSCQVTHEGSTVEKTVAPTECSGRADCGFTSESYQQGVLSATILYEILLGKATLYAVLVSALVLMAMVKRKDSRGRAKRSGSGATNFSLLKQAGDVEENPGPTSATMDWIWRILFLVGAATGAHSGPQVQLQESGGGLAQAGGSLRLSCAASGRTFSMGWFRQAPGKEREFVAAITYSGGSPYYASSVRGRFTISRDNAKNTVYLQMNSLKPEDTAVYYCAANPTYGSDWNAENWGQGTQVTVSSGSGGGGSGGGGSGGGGSFEQLQLQESGPGLVKPSETLSLTCTVSGGSISSSSYFWGWIRQPPGKGLEWIGSIYYSGITYYNPSLKSRVTISVDTSKNQFSLKLSSVTAADTAVYYCARHDGAVAGLFDYWGQGTLVTVSSATRASTKGPSVFPLAPSSKSTSGGTAALGCLVKDYFPEPVTVSWNSGALTSGVHTFPAVLQSSGLYSLSSVVTVPSSSLGTQTYICNVNHKPSNTKVDKRVEPKSCIPEDTFFPSPESSCDVKLVEKSFETDTNLNFQNLSVIGFRILLLKVAGFNLLMTLRLWSSRAKRSGSGVKQTLNFDLLKLAGDVESNPGPSRGHMTEYKPTVRLATRDDVPRAVRTLAAAFADYPATRHTVDPDRHIERVTELQELFLTRVGLDIGKVWVADDGAAVAVWTTPESVEAGAVFAEIGPRMAELSGSRLAAQQQMEGLLAPHRPKEPAWFLATVGVSPDHQGKGLGSAVVLPGVEAAERAGVPAFLETSAPRNLPFYERLGFTVTADVEVPEGPRTWCMTRKPGA
As for B1, in assay [1], the “NFAT-GFP ASSAY: L363” value is 2+ (refer to approximately 5%, 10%, 20%, 30%, 40% and 50% GFP positive cells). The “NFAT-GFP ASSAY: Nalm6” value in assay [2] is “+ (refer to approximately 5%, 10%, 20%, 30%, 40% and 50% GFP positive cells)”. In assay [3], the “NFAT-GFP ASSAY: Raji” value was 4+ (refer to approximately 5%, 10%, 20%, 30%, 40% and 50% GFP positive cells).

B2: 22067 (protein)
chain: MALPVTALLLPLALLLHAARPQLQLQESGPGLVKPSETLSLTCTVSGDSISSGDYYWGWIRQPPGKGLEWIGHIYYSGVTYYNPSLKSRVTISVDTSRNQFSLKLSSVTAADTAVYYCTREDSSNWRSRGQGTLVTVSSLEAAAKEDLKNVFPPEVAVFEPSEAEISHTQKATLVCLATGFYPDHVELSWWVNGKEVHSGVCTDPQPLKEQPALNDSRYCLSSRLRVSATFWQNPRNHFRCQVQFYGLSENDEWTQDRAKPVTQIVSAEAWGRADCGFTSESYQQGVLSATILYEILLGKATLYAVLVSALVLMAMVKRKDSRGRAKRSGSGATNFSLLKQAGDVEENPGPTSMDWIWRILFLVGAATGAHSFEVQLLESGGGLIQPGGSLRLSCAASGFTFSSHAMTWVRQAPGKGLEWVSAISGSGDYTHYADSVKGRFTISRDNSKNTVYLQMNSLRAEDSAVYYCAKDEDGGSLLGHRGQGTLVTVSSTRIQNPDPAVYQLRDSKSSDKSVCLFTDFDSQTNVSQSKDSDVYITDKCVLDMRSMDFKSNSAVAWSNKSDFACANAFNNSIIPEDTFFPSPESSCDVKLVEKSFETDTNLNFQNLSVIGFRILLLKVAGFNLLMTLRLWSSRAKRSGSGVKQTLNFDLLKLAGDVESNPGPSRGHMTEYKPTVRLATRDDVPRAVRTLAAAFADYPATRHTVDPDRHIERVTELQELFLTRVGLDIGKVWVADDGAAVAVWTTPESVEAGAVFAEIGPRMAELSGSRLAAQQQMEGLLAPHRPKEPAWFLATVGVSPDHQGKGLGSAVVLPGVEAAERAGVPAFLETSAPRNLPFYERLGFTVTADVEVPEGPRTWCMTRKPGA
With B2, the “NFAT-GFP ASSAY: L363” value in assay [1] is “+ (refer to approximately 5%, 10%, 20%, 30%, 40% and 50% GFP positive cells)”. In addition, in assay [2], the “NFAT-GFP ASSAY: Nalm6” value is “+/- (refer to approximately 5%, 10%, 20%, 30%, 40% and 50% GFP positive cells)”. Moreover, the “NFAT-GFP ASSAY: Raji” value in assay [3] was “+/- (refer to approximately 5%, 10%, 20%, 30%, 40% and 50% GFP positive cells)”.

B3: 22066 (protein)
chain: MALPVTALLLPLALLLHAARPQLQLQESGPGLVKPSETLSLTCTVSGDSISSGDYYWGWIRQPPGKGLEWIGHIYYSGVTYYNPSLKSRVTISVDTSRNQFSLKLSSVTAADTAVYYCTREDSSNWRSRGQGTLVTVSSLEVAALEREDLKNVFPPEVAVFEPSEAEISHTQKATLVCLATGFYPDHVELSWWVNGKEVHSGVCTDPQPLKEQPALNDSRYCLSSRLRVSATFWQNPRNHFRCQVQFYGLSENDEWTQDRAKPVTQIVSAEAWGRADCGFTSESYQQGVLSATILYEILLGKATLYAVLVSALVLMAMVKRKDSRGRAKRSGSGATNFSLLKQAGDVEENPGPTSMDWIWRILFLVGAATGAHSFEVQLLESGGGLIQPGGSLRLSCAASGFTFSSHAMTWVRQAPGKGLEWVSAISGSGDYTHYADSVKGRFTISRDNSKNTVYLQMNSLRAEDSAVYYCAKDEDGGSLLGHRGQGTLVTVSSTRIQNPDPAVYQLRDSKSSDKSVCLFTDFDSQTNVSQSKDSDVYITDKCVLDMRSMDFKSNSAVAWSNKSDFACANAFNNSIIPEDTFFPSPESSCDVKLVEKSFETDTNLNFQNLSVIGFRILLLKVAGFNLLMTLRLWSSRAKRSGSGVKQTLNFDLLKLAGDVESNPGPSRGHMTEYKPTVRLATRDDVPRAVRTLAAAFADYPATRHTVDPDRHIERVTELQELFLTRVGLDIGKVWVADDGAAVAVWTTPESVEAGAVFAEIGPRMAELSGSRLAAQQQMEGLLAPHRPKEPAWFLATVGVSPDHQGKGLGSAVVLPGVEAAERAGVPAFLETSAPRNLPFYERLGFTVTADVEVPEGPRTWCMTRKPGA
B3: the “NFAT-GFP ASSAY: L363” value in assay [1] is “+/- (refer to approximately 5%, 10%, 20%, 30%, 40% and 50% GFP positive cells)”. Besides, the “NFAT-GFP ASSAY: Nalm6” value in assay [2] is “+/- (refer to approximately 5%, 10%, 20%, 30%, 40% and 50% GFP positive cells)”. Also, in assay [3], the “NFAT-GFP ASSAY: Raji” value was “+/- (refer to approximately 5%, 10%, 20%, 30%, 40% and 50% GFP positive cells)”.

B4: 22072 (protein)
chain: MALPVTALLLPLALLLHAARPQLQLQESGPGLVKPSETLSLTCTVSGDSISSGDYYWGWIRQPPGKGLEWIGHIYYSGVTYYNPSLKSRVTISVDTSRNQFSLKLSSVTAADTAVYYCTREDSSNWRSRGQGTLVTVSSLEGQPKANPTVTLFPPSSEELQANKATLVCLISDFYPGAVTVAWKADGSPVKAGVETTKPSKQSNNKYAASSYLSLTPEQWKSHRSYSCQVTHEGSTVEKTVAPTECSPIKTDVITMDPKDNCSKDANDTLLLQLTNTSAYYMYLLLLLKSVVYFAIITCCLLRRTAFCCNGEKSRAKRSGSGATNFSLLKQAGDVEENPGPTSMDWIWRILFLVGAATGAHSFEVQLLESGGGLIQPGGSLRLSCAASGFTFSSHAMTWVRQAPGKGLEWVSAISGSGDYTHYADSVKGRFTISRDNSKNTVYLQMNSLRAEDSAVYYCAKDEDGGSLLGHRGQGTLVTVSSTRIQNPDPAVYQLRDSKSSDKSVCLFTDFDSQTNVSQSKDSDVYITDKCVLDMRSMDFKSNSAVAWSNKSDFACANAFNNSIIPEDTFFPSPESSCDVKLVEKSFETDTNLNFQNLSVIGFRILLLKVAGFNLLMTLRLWSSRAKRSGSGVKQTLNFDLLKLAGDVESNPGPSRGHMTEYKPTVRLATRDDVPRAVRTLAAAFADYPATRHTVDPDRHIERVTELQELFLTRVGLDIGKVWVADDGAAVAVWTTPESVEAGAVFAEIGPRMAELSGSRLAAQQQMEGLLAPHRPKEPAWFLATVGVSPDHQGKGLGSAVVLPGVEAAERAGVPAFLETSAPRNLPFYERLGFTVTADVEVPEGPRTWCMTRKPGA
Regarding B4, in assay [1], the “NFAT-GFP ASSAY: L363” value is “+ (refer to approximately 5%, 10%, 20%, 30%, 40% and 50% GFP positive cells)”. In addition, in assay [2], the “NFAT-GFP ASSAY: Nalm6” value was “+/- (refer to approximately 5%, 10%, 20%, 30%, 40% and 50% GFP positive cells)”. Also, the “NFAT-GFP ASSAY: Raji” value in assay [3] is “+ (refer to approximately 5%, 10%, 20%, 30%, 40% and 50% GFP positive cells)”.
